Data as given in patent US20230040148 (published 2023).

Experiments:
[1] = target: T1, LbCas12a N527R/D559P/E795L (Lachnospiraceae bacterium ND2006); assay: cell_activity; 5 uM RNP, HEK293, 48 h, T7EI; WT 80.35; PAM not stated
LbCas12a N527R/E795L [2] = target: T2, LbCas12a N527R/E795L (Lachnospiraceae bacterium ND2006); assay: as above
LbCas12a N527R [3] = target: T3, LbCas12a N527R (Lachnospiraceae bacterium ND2006); assay: as above
LbCas12a D559P [4] = target: T4, LbCas12a D559P (Lachnospiraceae bacterium ND2006); assay: as above
LbCas12a E795L [5] = target: T5, LbCas12a E795L (Lachnospiraceae bacterium ND2006); assay: as above
LbCas12a N527R/D559P = LbCas12a N527R/D559P (Lachnospiraceae bacterium ND2006); assay: as above
LbCas12a D559P/E795L [6] = target: T6, LbCas12a D559P/E795L (Lachnospiraceae bacterium ND2006); assay: as above
[7] = target: T1, LbCas12a N527R/D559P/E795L; assay: cell_activity; 5 uM RNP, HEK293, 48 h, T7EI; WT 78.5; PAM not stated
LbCas12a N527R/E795L [8] = target: T2, LbCas12a N527R/E795L; assay: as above
LbCas12a N527R [9] = target: T3, LbCas12a N527R; assay: as above
LbCas12a D559P [10] = target: T4, LbCas12a D559P; assay: as above
LbCas12a E795L [11] = target: T5, LbCas12a E795L; assay: as above
LbCas12a D559P/E795L [12] = target: T6, LbCas12a D559P/E795L; assay: as above

B1: LbCpf1 HPRT 38115-AS-23 crRNA ; HPRT 38115-AS target (protospacer as DNA, 23 nt) (ssRNA ; dsDNA)
RNA: UAAUUUCUACUAAGUGUAGAUACACACCCAAGGAAAGACUAUGA
DNA 1: ACACACCCAAGGAAAGACTATGA
DNA 2: TCATAGTCTTTCCTTGGGTGTGT
modifications: Alt-R end modifications on 5' and 3' ends
- activity [1]: 60.3 % cleavage
- activity (LbCas12a N527R/E795L [2]): 39.3 % cleavage
- activity (LbCas12a N527R [3]): 35 % cleavage
- activity (LbCas12a D559P [4]): 78 % cleavage
- activity (LbCas12a E795L [5]): 78.2 % cleavage
- activity (LbCas12a N527R/D559P): 9.39 % cleavage
- activity (LbCas12a D559P/E795L [6]): 79.3 % cleavage

B2: LbCpf1 HPRT 38330-AS-23 crRNA ; HPRT 38330-AS target (protospacer as DNA, 23 nt) (ssRNA ; dsDNA)
RNA: UAAUUUCUACUAAGUGUAGAUGGUUAAAGAUGGUUAAAUGAUUG
DNA 1: GGTTAAAGATGGTTAAATGATTG
DNA 2: CAATCATTTAACCATCTTTAACC
modifications: Alt-R end modifications on 5' and 3' ends
- activity [7]: 28.8 % cleavage
- activity (LbCas12a N527R/E795L [8]): 21.2 % cleavage
- activity (LbCas12a N527R [9]): 9.6 % cleavage
- activity (LbCas12a D559P [10]): 58.4 % cleavage
- activity (LbCas12a E795L [11]): 79.5 % cleavage
- activity (LbCas12a D559P/E795L [12]): 75.8 % cleavage
